The target of experiment [1] is T1, Rhesus macaque CD4-HIS (Acro Biosystems, Cat. CD4-C52H7) (rhesus macaque, UniProt P16003 26-390).
T1 construct: Bought recombinant protein; also called Rhesus CD4; rhesus CD4-HIS; not shown: His tag
The experiment in a line: BLI (Octet Red384); purified antibody captured on anti-mouse IgG Fc (AMC) sensors, rhesus CD4-HIS analyte at 100, 50, 25 nM; global 1:1 fit.

Experiment [2] concerns the target T2, Rhesus macaque CD4-HIS (Acro Biosystems, Cat. CD4-C52H7) (rhesus macaque, UniProt P16003 26-390).
T2 construct: Bought reagent; also called Rhesus CD4; rhesus CD4-HIS; not shown: His tag
Put plainly: BLI (Octet Red384); Ab on anti-mouse Fc (AMC) sensor; rhesus CD4-HIS as analyte.

B1: 75110_14P08A (antibody, V domains shown)
VH: QVQLQESGPGLVKSSETLSLTCTDSGDSIRSYYWNWIRQPAGKGLEWIGRIYASGSTNYNPSLKSRVIMSADTSKNRFSLKLSSVTAADTAVYYCARDGGVGDSLDYWGQGTLVTVSS
VL: DIVMTQTPLSLPVTPGEPASISCRSSQSLLDSDDGNTYLDWYLQKPGQSPQLLIYTLSYRASGVPDRFSGSGSGTDFTLKISRVEAEDVGVYYCMQRIEFPFTFGPGTKVDIK
notes: Tested as antibody purified from the AlivaMab Mouse hybridoma supernatant (chimeric AlivaMab; captured by anti-mouse IgG Fc sensors, human kappa light chain); also called ADS75110 purified AMM Ab 75110_14P08A; Sib8.2
For B1, in experiment [1], the Kd was determined as 8.8 nM, the koff was 0.00066 s⁻¹ and the kon is 75000 M⁻¹ s⁻¹.

B2: 75110_07J24A (antibody, V domains shown)
VH: QAQLQESGPGLVKPSETLSLTCTVSGGSISSYYYNWIRQPAGKGLEWIGRIYTSGRTDYNPSLKSRVTMSADTSKNQFSLKLSSVTAADTAVYYCARDEGPTDAFDIWGQGTMVTVSS
VL: DIVMTQTPLSLPVTPGEPASISCRSSQSLLDSDDGNTYLDWYLQKPGQSPHLLIYTLSYRASGVPDRFSGSGSGSDFTLKISRVEAEDVGVYYCMQRIEFPFTFGPGTKVDIK
notes: Tested as antibody purified from AlivaMab Mouse hybridoma supernatant (human variable domains, kappa; mouse Fc, captured on anti-mouse IgG Fc sensors); also called ADS75110 purified AMM Ab
Take B2: the binding result in experiment [2] is “no binding (tested: 100 nM (highest of 100, 50, 25 nM))”.

B3: 75110_14G10A (antibody, V domains shown)
VH: EVQLVESGGGLVKPGGSLRLSCAASGFTFSSYSMNWVRQAPGKGLEWVSFISSSSSYIYYADSVKGRFTISRDNAKNSLYLQMNSLRAEDTAVYYCARERGDDYGDYEGAFDIWGQGTMVTVSS
VL: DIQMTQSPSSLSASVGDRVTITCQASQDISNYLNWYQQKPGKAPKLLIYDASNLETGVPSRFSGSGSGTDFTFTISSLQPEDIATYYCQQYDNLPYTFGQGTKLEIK
notes: as for B2
B3: in experiment [2], the binding result is listed as “no binding (tested: 100 nM (highest of 100, 50, 25 nM))”.
